# Results: the DeepSol protein solubility set
# Assay: soluble on expression in E. coli; label from the status in PepcDB or PDB records
row,Sequence,soluble on expression in E. coli
1,AVPSPPPASPRSQYNFIADVVEKTAPAVVYIEILDRHPFLGREVPISNGSGFVVAADGLIVTNAHVVADRRRVRVRLLSGDTYEAVVTAVDPVADIATLRIQTKEPLPTLPLGRSADVRQGEFVVAMGSPFALQNTITSGIVSSAQRPARDLGLPQTNVEYIQTDAAIDFGNAGGPLVNLDGEVIGVNTMKVTAGISFAIPSDRLREFLHRGEKKNSSSGISGSQRRYIGVMMLTLSPSILAELQLREPSFPDVQHGVLIHKVILGSPAHRAGLRPGDVILAIGEQMVQNAEDVYEAVRTQSQLAVQIRRGRETLTLYVTPEVTE,soluble
2,MSLVTFSIRIISSDRIFLVAEVKALERVYVIGHKNPDTDSVCSAIGYAHFKNNVEKGKTFIPARSGDLTNESLFVLKYFGMNPPLHIETLEPTVEDLELKNPIFVTPDTSAYDVAMLMESRGIKNVPVVSKEKMIGVVTESNIARVYVRRLKIEPLVIHPVPFDQLVRILKAEVVCDYMKEKTVSGKVHIAVDALHVLLGKIEIGDVVIVGDNEPAQIALLEKGAKLMIVVNNAPVSNRVLEIAKEKNAAVLRVKFDAFSAAKLINLSLPVTLVMSKKFPTVTKKDTLEEVKEIVFTSKIRAAFVEDEKGRLCGVITRTDLLKDVRKKVILVDHNEITQAPEGVEKAEILEIIDHHRLGGLSTLNPVFFYNEPVGSTSTIVAEFFLKNGVKMEREIAGILLSGIVSDTLFFKLSTTTEKDRKMANFLADVAKLDLEKFAKKLLKEGMKIPEDVDPAELLKRDVKVYEMGEESFAVSQIMTSDFSTLLKEKERFMNTLKTLKGEFGVKHFFVLFTNPVEEASLLMMDGDQKLVEKAFNAEKKDGLFLLKGVMSRKKDFVPKIGEVLRREREGHHHHHH,soluble
3,MDKQLEAARKFLKDNVRQMVDFSQTAQNRRVPPPPIEKPMPEEAKTIPLPVIGKAKSAGNIDLWSAIGQRESCRFYADEPMSLDELSLLLWATQGVRLKLDAGHALRTVPSAGCRHAFETYLCVLNVESLDKGIYRYLPLEHALLCSHAPEKLESRIVRATLGQRFTGDAAVVFVWTAIPYRMEWRYGLAAHKVIALDAGHVCQNLYLACEAIGAGTCAIAAYDQDEMDRLLDVDGEEEFTIYLAPVGKKG,not soluble
4,MKPIIVKKGDIRRLLKESGEIDGNDGRISVAAHILYQFGDRIVFVKAYENEDIDLKIKNRKNDYRYIKVIASQNGEFHIMDLPIGDRRIGSETLYGLIMASETFGTRLRNEILNMISFEMKRRNSIWILVDKDSHAYYPFTTHSITEIILHDVEYRFERGLIDRNLEIRVPVQFIYNYWQRYLKAKNRTPGEVWASMILQ,not soluble
5,MGSDKIHHHHHHMRKFNLTALSVMLALGLTACQPPEAEKAAPAASGEAQTANEGGSVSIAVNDNACEPMELTVPSGQVVFNIKNNSGRKLEWEILKGVMVVDERENIAPGLSDKMTVTLLPGEYEMTCGLLTNPRGKLVVTDSGFKDTANEADLEKLSQPLADYKAYVQGEVKELVAKTKTFTEAVKAGDIEKAKSLFADTRVHYERIEPIAELFSELDPVIDAREDDFKDGAKDAGFTGFHRIEYALWVEKDVSGVKEIAAKLMTDVEALQKEIDALAFPPGKVVGGASELIEEVAGSKISGEEDRYSHTDLSDFQANVDGSKKIVDLFRPLIEAKNKALLEKTDTNFKQVNEILAKYRTKDGFETYDKLGEADRKALQASINALAEDLAQLRGILGLK,not soluble
6,MFDRLLSQFGRKRVASESVATQQQLTDRTNVYTVKPQDPLLDKKQKMTPVQKVCLKCLAGESGHITHVLSSLSN,not soluble
7,MKFFSAAAFVAALVASGNACIGGGAGGAGGCCPPAQPGCGNPCQGAGPQYAAAPPPPPQYAAAPQGGAYPTAGK,not soluble
8,DVFVYGSFQEPSVVNLILECSPVMVPAQLHGYHVYRLKGRLHACISPSENGLINGKILTGLTDSQLENLDMIEGSEYVRKTVEVVLTDTSEKKQVETYVWANKDDPNLYGEWDFEEWRRLHMDKFIEASTKFIEWKKNPDG,not soluble
9,MQAPVVTETCQTNEEGEQLVLRLRAPVERPRVTWGAGVIDNEHMGRLKSNCCCIYTPPRVWDDPSTWEPEEHETEHCRGHTLPEKKQKPQGGHGSDKDEDKGNCGCDHC,not soluble
10,MSLSETATQAPQPANVLLEVNDLRVTFATPDGDVTAVNDLNFTLRAGETLGIVGESGSGKSQTAFALMGLLATNGRIGGSATFNGREILNLPERELNTLRAEQISMIFQDPMTSLNPYMRVGEQLMEVLMLHKGMSKAEAFEESVRMLDAVKMPEARKRMKMYPHEFSGGMRQRVMIAMALLCRPKLLIADEPTTALDVTVQAQIMTLLNELKREFNTAIIMITHDLGVVAGICDKVLVMYAGRTMEYGKARDVFYQPVHPYSIGLLNAVPRLDSEGAEMLTIPGNPPNLLRLPKGCPFQPRCPHAMEICNNAPPLEAFSPGRLRACFKPVEELL,not soluble
11,GSHMRSEFASGNTYALYVRDTLQPGMRVRMLDDYEEISAGDEGEFRQSNNGVPPVQVFWESTGRTYWVHWHMLEILGFEEDIEDMVEADEYQGAVASRVLGRALP,soluble
12,MKCNMCPRACNVDRNVNTGFCGMTNDIYAARAALHMWEEPCISGEHGSGAVFFSGCTLRCIFCQNSEIAAAQVGKKITVERLSDIFLELQDKCANNINLVTATHFVPQVAEALVKAKNKGLVIPVVYNSSAYENVSTLNMLDGLVDVYLPDMKYIDSRLSAEYSKAPDYADVAKAAIHEMVRQTGKLEFFIEDDELVKSGRVEAGIMKKGVIVRHLVLPGTTKDSKAVIKYLIDTYGDDIYISIMSQYTPFDRLKKHPLLSRKVTRKEYNSVVDYAIDCGINNGFIQEGDVAEESFIPEFDYEGI,not soluble
13,KEQILSSEQLARKMMLELGDKKQEHLVAIYMDTQNRIIEQRTIFIGTVRRSVAEPREILHYACKNMATSLIIIHNHPSGSPKPSESDLSFTKKIKRSCDHLGIVCLDHIIVGKNKYYSFREEADIL,soluble
14,MEQSVANLVDMRDVSFTRGNRCIFDNISLTVPRGKITAIMGPSGIGKTTLLRLIGGQIAPDHGEILFDGENIPAMSRSRLYTVRKRMSMLFQSGALFTDMNVFDNVAYPLREHTQLPAPLLHSTVMMKLEAVGLRGAAKLMPSELSGGMARRAALARAIALEPDLIMFDEPFVGQDPITMGVLVKLISELNSALGVTCVVVSHDVPEVLSIADHAWILADKKIVAHGSAQALQANPDPRVRQFLDGIADGPVPFRYPAGDYHADLLPGS,not soluble
15,MSQTKIEWADKVWNPVSGCTKISEGCQNCYAERMSKRLAGRCGYPAEEPFKVTPHPEKLGEPLKWRKPLRIFVNSMSDLFHADVPDKFIINVLSMIAEASHHTFLILTKRPERMRELLNHDTIANDVWLQTSRGVNAERSPWPLPNLWLGVSAENQAAADERIPILLQTPAAVRFVSVEPMLSEVNLSRYLKRPICKHWGRNGDPNIYGRYFWGKQALVGAGWVGIDWVICGGETGPGARPMHPVWVRDLRDQCRVAGTPFFFKSFGEYVRVGECMNEEDDEEFYSKSSAAGTNVQRLNLQGGMGYHGPKSIYMQRIGKKRAGRELDGRTWEEFPLEHHHHHH,not soluble
16,MAFLSTSVLIKCCILLLAGGLAESLTLGLAPALSTHSSGVSTQSVDLSQIKRGDEIQAHCLTPAETEVTECAGILKDVLSKNLHELQGLCNVKNKMGVPWVSVEELGQEIITGRLPFPSVGGTPVNDLVRVLVVAESNTPEETPEEEFYAYVELQTELYTFGLSDDNVVFTSDYMTVWMIDIPKSYVDVGMLTRATFLEQWPGAKVTVMIPYSSTFTWCGELGAISEESAPQPSLSARSPVCKNSARYSTSKFCEVDGCTAETGMEKMSLLTPFGGPPQQAKMNTCPCYYKYSVSPLPAMDHLILADLAGLDSLTSPVYVMAAYFDSTHENPVRPSSKLYHCALQMTSHDGVWTSTSSEQCPIRLVEGQSQNVLQVRVAPTSMPNLVGVSLMLEGQQYRLEYFGDH,soluble
